Kd data for 4 substances are collected here from PMC5718816.

The target of this assay is IgG-CD4 fusion protein (human) (UniProt P01730). Description: BLI. In general terms: BLI is a label-free optical method that tracks binding on a fibre tip over time.
The substance “recombinant gp120 of HIV-1 92UG037.8 (subtype A) (natural protein)” returned a Kd of 2.56 nM.
As to “recombinant gp120 of HIV-1 JR-FL (subtype B) (natural protein)”, the Kd is 6.4 nM. This Kd lies about 2.5-fold higher than the previous one.
For “recombinant consensus gp120 of HIV-1 CRF01_AE” the value was 18.4 nM; for “recombinant gp120 of HIV-1 93MW965.26 (subtype C) (natural protein)”, 112 nM.

By Kd is commonly meant a measure of binding affinity in units of concentration.
